Residue numbers refer to the chain shown, from its start. Names and notes keep the numbering of the source. Read-outs that look alike come from different tables or passages of the source.

Data set [1] concerns the molecule itself. The experiment in a line: protein-induced fluorescence enhancement.
For data set [2], the target named is cytoDATL (aa 1-415) K320G with super YFP at the C terminus (D. melanogaster, UniProt Q9VC57 1-415, K320G). The data set can be described thus: FRET or BRET. On the technique in general: Bioluminescence resonance energy transfer reports proximity on the nanometre scale.
Data set [3] deals with the molecule itself. The experiment in a line: protein-induced fluorescence enhancement. This is another data set of the same source.

B1: cytoDATL (aa 1-415) G343C, K320T (domain or fragment)
chain: MGGSAVQVINASEEHTFVLNEDALSEVLMRDEVKDRFVCVVSVAGAFRKGKSFLLDFFLRYMYSKYVHHDATDWLGGESDPLEGFSWRGGSERDTTGILMWSDIFLHDYPNGDKIAIILLDTQGAFDSQSTVRDCATVFALSTMLSSVQIYNLSQNIQEDDLQHLQLFTEYGRLALADTGKKPFQRLQFLVRDWSFPYEAEYGALGGDKILKRRLEVSDKQHPELQSLRRHISSCFTEVACFLMPHPGLNVATNPKFDGRLQDITPEFKSSLRSLVPMLLAPDNLVYKEISGQRVRARDLIQYFQSYMNIYKGNELPEPTSMLVATAEANHLTAVAAAKELYCQLMEEVCGGTRPYLSTAHLQTEHLRVKDKALFQFAAKRKMGGEEFTEKFRKQLEDDLEEVFTNYQAHNESKN
modifications: Cy3 maleimide on the engineered cysteine G343C in the PIFE assays; unlabelled in cross-linking
For the molecule B1, the binding result in data set [1] is given as “binds”.

B2: cytoDATL (aa 1-415) K320G with mCerulean3 at the C terminus (domain or fragment)
chain: B1 chain with T320G, C343G
Take B2: the binding result in data set [2] is recorded as “binds”.

B3: cytoDATL (aa 1-415) G343C, P317G (domain or fragment)
chain: B1 chain with P317G, T320K
modifications: Cy3 maleimide on the engineered cysteine G343C in the PIFE assays; unlabelled in cross-linking
For the molecule B3, the binding result in data set [1] is “binds”.

B4: cytoDATL (aa 1-415) G343C, K320N (domain or fragment)
chain: B1 chain with T320N
modifications: Cy3 maleimide on the engineered cysteine G343C in the PIFE assays; unlabelled in cross-linking
As to B4, the binding result in data set [1] is on record as “binds”.

B5: cytoDATL (aa 1-415) G343C, K320E, E328R (domain or fragment)
chain: B1 chain with T320E, E328R
modifications: Cy3 maleimide on the engineered cysteine G343C
For B5, the binding result in data set [3] is “binds”.

B6: cytoDATL (aa 1-415) G343C, K320M (domain or fragment)
chain: B1 chain with T320M
modifications: Cy3 maleimide on the engineered cysteine G343C in the PIFE assays; unlabelled in cross-linking
B6: the binding result in data set [1] is “binds”.

B7: cytoDATL (aa 1-415) G343C, K320G (domain or fragment)
chain: B1 chain with T320G
modifications: Cy3 maleimide on the engineered cysteine G343C in the PIFE assays; unlabelled in cross-linking
For the molecule B7, in data set [1], the binding result is reported as “binds”.

For the origin of these results see publication PMC5412568 (The Journal of Cell Biology, 2017).
